Results published in the supplement of paper PMC12338614.
± gives the uncertainty stated by the source.

B1: library; numbered along this chain (parent)
chain: MEVVDPQQLGMFTEGELMSVGMDTFIHRIDSTEVIYQPRRKRAKLIGKYLMGDLLGEGSYGKVKEVLDSETLCRRAVKILKKKKLRRIPNGEANVKKEIQLLRRLRHKNVIQLVDVLYNEEKQKMYMVMEYCVCGMQEMLDSVPEKRFPVCQAHGYFCQLIDGLEYLHSQGIVHKDIKPGNLLLTTGGTLKISDLGVAEALHPFAADDTCRTSQGSPAFQPPEIANGLDTFSGFKVDIWSAGVTLYNITTGLYPFEGDNIYKLFENIGKGSYAIPGDCGPPLSDLLKGMLEYEPAKRFSIRQIRQHSWFRKKHPPAEAPVPIPPSPDTKDRWRSMTVVPYLEDLHGADEDEDLFDIEDDIIYTQDFTVPGQVPEEEASHNGQRRGLPKAVCMNGTEAAQLSTKSRAEGRAPNPARKACSASSKIRRLSACKQQ

Variants of: B1
Experiment: STK11 functional score (HeLa growth suppression), rescaled enrichment; synonymous median = 1, nonsense median = 0 (normalised score)
Conditions: with HeLa; variant type: missense
Method: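 Deep mutational scan (TileSeq/POPCode codon randomisation) of full-length codon-optimised STK11 cDNA integrated at a Bxb1 landing pad (AAVS1) in HeLa cells. Restoring functional STK11 suppresses HeLa proliferation. Variant frequencies were measured by NGS before and after about two weeks of growth. The error-corrected enrichment log-ratio was rescaled so that synonymous median = 1 and nonsense median = 0, scores above 1 were compressed, and codon-level and three biological replicate scores were combined; error is the bootstrapped standard error. Scale: synonymous median = 1, nonsense median = 0; below 0.5 = damaging.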

| Variant | STK11 functional score |
| --- | --- |
| MEVVDPQQLGMFTEGELMSVGMDTFIHRIDSTEVIYQPRRKRAKLIGKYLMGDLLGEGSYGKVKEVLDSETLCRRAVKILKKKKLRTIPNGEANVKKEIQLLRRLRHKNVIQLVDVLYNEEKQKMYMVMEYCVCGMQEMLDSVPEKRFPVCQAHGYFCQLIDGLEYLHSQGIVHKDIKPGNLLLTTGGTLKISDLGVAEALHPFAADDTCRTSQGSPAFQPPEIANGLDTFSGFKVDIWSAGVTLYNITTGLYPFEGDNIYKLFENIGKGSYAIPGDCGPPLSDLLKGMLEYEPAKRFSIRQIRQHSWFRKKHPPAEAPVPIPPSPDTKDRWRSMTVVPYLEDLHGADEDEDLFDIEDDIIYTQDFTVPGQVPEEEASHNGQRRGLPKAVCMNGTEAAQLSTKSRAEGRAPNPARKACSASSKIRRLSACKQQ [R87T] | 1.48 ± 0.38 |
| MEVVDPQQLGMFTEGELMSVGMDTFIHRIDSTEVIYQPRRKRAKLIGKYLMGDLLGEGSYGKVKEVLDSETLCRRAVKILKKKKLRRIPNGEANVKKEIQLLRRLRHKNVIQLVDVLYNEEKQKMYMVMEYCVCGMQEMLDSVPEKRFPVCQAHGYFCQLIDGLEYLHSQGIVHKDIKPGNLLLTTGGTLKISDLGVAEALHPFAADDTCRTSQGSPAFQPPEIANGLDTFSGFKVDIWSAGVTLYNITTGLYPFEGDNIYKLFENIGKGSYAIPGDCGPPLSDLLKGMLEYEPAKRFSIRQIRQHSWFRKKHPPAEAPVPIPPSADTKDRWRSMTVVPYLEDLHGADEDEDLFDIEDDIIYTQDFTVPGQVPEEEASHNGQRRGLPKAVCMNGTEAAQLSTKSRAEGRAPNPARKACSASSKIRRLSACKQQ [P326A] | 0.8 ± 0.72 |
| MEVVDPQQLGMFTEGELMSVGMDTFIHRIDSTEVIYQPRRKRAKLIGKYLMGDLLGEGSYGKVKEVLDSETLCRRAVKILKKKKLRRIPNGEANVKKEIQLLRRLRHKNVIQLVDVLYNEEKQKMYMVMEYCVCGMQEMLDSVPEKRFPVCQAHGYFCQLIDGLEYLHSQGIVHKDIKPGNLLLTTGGTLDISDLGVAEALHPFAADDTCRTSQGSPAFQPPEIANGLDTFSGFKVDIWSAGVTLYNITTGLYPFEGDNIYKLFENIGKGSYAIPGDCGPPLSDLLKGMLEYEPAKRFSIRQIRQHSWFRKKHPPAEAPVPIPPSPDTKDRWRSMTVVPYLEDLHGADEDEDLFDIEDDIIYTQDFTVPGQVPEEEASHNGQRRGLPKAVCMNGTEAAQLSTKSRAEGRAPNPARKACSASSKIRRLSACKQQ [K191D] | -0.393 ± 0.099 |
| MEVVDPQQLGMFTEGELMSVGMDTFIHRIDSTEVIYQPRRKRAKLIGKYLMGDLLGEGSYGKVKEVLDSETLCRRAVKILKKKKLRRIPNGEANVKKEIQLLRRLRHKNVIQLVDVLYNEEKQKMYMVMEYCVCGMQEMLDSVPEKRFPVCQAHGYFCQLIDGLEYLHSQGIVHKDIKPGNLLLTTGGTLKISDLGVAEALHPFAADDTCRTSQGSPAFQPPEIANGLDTFSGFKVDIWSAIVTLYNITTGLYPFEGDNIYKLFENIGKGSYAIPGDCGPPLSDLLKGMLEYEPAKRFSIRQIRQHSWFRKKHPPAEAPVPIPPSPDTKDRWRSMTVVPYLEDLHGADEDEDLFDIEDDIIYTQDFTVPGQVPEEEASHNGQRRGLPKAVCMNGTEAAQLSTKSRAEGRAPNPARKACSASSKIRRLSACKQQ [G242I] | -0.186 ± 0.099 |
| MEVVDPQQLGMFTEGELMSVGMDTFIHRIDSTEVIYQPRRKRAKLIGKYLMGDLLGEGSYGKVKEVLDSETLCRRAVKILKKKKLRRIPNGEANVKKEIQLLRRLRHKNVIQLVDVLYNEEKQKMYMVMEYCVCGMQEMLDSVPEKRFPVCQAHGYFCQLIDGLEYLHSQGIVHKDIKPGNLLLTTGGTLKISDLVVAEALHPFAADDTCRTSQGSPAFQPPEIANGLDTFSGFKVDIWSAGVTLYNITTGLYPFEGDNIYKLFENIGKGSYAIPGDCGPPLSDLLKGMLEYEPAKRFSIRQIRQHSWFRKKHPPAEAPVPIPPSPDTKDRWRSMTVVPYLEDLHGADEDEDLFDIEDDIIYTQDFTVPGQVPEEEASHNGQRRGLPKAVCMNGTEAAQLSTKSRAEGRAPNPARKACSASSKIRRLSACKQQ [G196V] | 1.08 ± 0.12 |
| MEVVDPQQLGMFTEGELMSVGMDTFIHRIDSTEVIYQPRRKRAKLIGKYLMGDLLGEGSYGKVKEVLDSETLCRRAVKILKKKKLRRIPNGEANVKKEIQLLRRLLHKNVIQLVDVLYNEEKQKMYMVMEYCVCGMQEMLDSVPEKRFPVCQAHGYFCQLIDGLEYLHSQGIVHKDIKPGNLLLTTGGTLKISDLGVAEALHPFAADDTCRTSQGSPAFQPPEIANGLDTFSGFKVDIWSAGVTLYNITTGLYPFEGDNIYKLFENIGKGSYAIPGDCGPPLSDLLKGMLEYEPAKRFSIRQIRQHSWFRKKHPPAEAPVPIPPSPDTKDRWRSMTVVPYLEDLHGADEDEDLFDIEDDIIYTQDFTVPGQVPEEEASHNGQRRGLPKAVCMNGTEAAQLSTKSRAEGRAPNPARKACSASSKIRRLSACKQQ [R106L] | 1.15 ± 0.081 |
| MEVVDPQQLGMFTEGELMSVGMDTFIHRIDSTEVIYQPRRKRAKLIGKYRMGDLLGEGSYGKVKEVLDSETLCRRAVKILKKKKLRRIPNGEANVKKEIQLLRRLRHKNVIQLVDVLYNEEKQKMYMVMEYCVCGMQEMLDSVPEKRFPVCQAHGYFCQLIDGLEYLHSQGIVHKDIKPGNLLLTTGGTLKISDLGVAEALHPFAADDTCRTSQGSPAFQPPEIANGLDTFSGFKVDIWSAGVTLYNITTGLYPFEGDNIYKLFENIGKGSYAIPGDCGPPLSDLLKGMLEYEPAKRFSIRQIRQHSWFRKKHPPAEAPVPIPPSPDTKDRWRSMTVVPYLEDLHGADEDEDLFDIEDDIIYTQDFTVPGQVPEEEASHNGQRRGLPKAVCMNGTEAAQLSTKSRAEGRAPNPARKACSASSKIRRLSACKQQ [L50R] | 1.47 ± 0.33 |
